From patent US20240400715A1 (VIBRANT PHARMA, published 2024)
Values joined by “and” are separate entries in the source; they are usually repeats but may differ in a detail not shown here. Equal entries are not always repeated.

Columns and labels:
[1] = target: T1, human CD3 on Jurkat cells (human, UniProt P07766 23-207; P04234 22-171; P09693 23-182); experiment: FACS, Jurkat cells;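 note: flow cytometric binding of bispecific antibodies to Jurkat T cells, threefold serial dilutions incubated half an hour in the cold, EC50 taken from the fitted binding curve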
T1 construct: whole, on cells; CD3 complex as on Jurkat (Clone E6-1) cells; also called CD3 expressing cells (Jurkat)
Procedure: The binding of the bispecific antibodies was tested on the CA expressing human lung adenocarcinoma cell line (H1573) and the CD3 expressing immortalized T lymphocyte line (Jurkat). The steps are as follows: the cells were harvested, counted, and resuspended in FACS buffer (PBS containing 0.1% BSA) at 2×10⁶ cells/ml. 100 μl of cell suspension was incubated in a V-bottom 96-well plate at 4° C. with 3-fold serial dilutions of bispecific antibodies (20 μg/ml-0.009 μg/ml) for 30 minutes; washed twice with pre-cooled FACS buffer. […] GraphPadPrism was used to obtain the binding curve.

[2] = target: T2, human CD3ε/δ (ACRO systems, CDD-H52W1) (human, UniProt P07766 23-126; P04234 22-105); experiment: BLI, antibody captured, antigen in solution;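 note: bispecific antibodies captured on AHIC biosensors to a 1.5 nm loading signal, in PBST with 0.02% detergent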
T2 construct: Bought protein; also called human CD3ϵ/CD3δ; human CD3 epsilon/delta antigen
Procedure: The bispecific antibodies were diluted to 5 ag/ml, and 1.5 nm protein was coupled to the surface of the AHIC sensor chip through 0.02% PBST.

Binder | EC50 [1] | Kd [2] [nM] | koff [2] [s⁻¹] | kon [2] [M⁻¹ s⁻¹]
CEA-Knob+Hole-Fab (110) (bispecific antibody, human IgG4 S228P, kappa, F234A L235A, Anti-CD3 TA1 Fab + anti-CEA VHH C17 on human IgG4 knob-into-hole Fc; also called CEA-CD3 bispecific antibody 110) EVQLVESGGGFVQAGESLTLSCTSSTLTFTPYRMAWYRQAPGKQRDLVADISSGDGRTTNYADFAKGRFTISRDNIKNTVFLRMTNLKPEDTAVYYCNTFVSFVGIARSWGQGTQVTVSSESKYGPPCPPCPAPEAAGGPSVFLFPPKPKDTLMISRTPEVTCVVVDVSQEDPEVQFNWYVDGVEVHNAKTKPREEQFNSTYRVVSVLTVLHQDWLNGKEYKCKVSNKGLPSSIEKTISKAKGQPREPQVYTLPPCQEEMTKNQVSLWCLVKGFYPSDIAVEWESNGQPENNYKTTPPVLDSDGSFFLYSRLTVDKSRWQEGNVFSCSVMHEALHNHYTQKSLSLSL heavy: ESKYGPPCPPCPAPEAAGGPSVFLFPPKPKDTLMISRTPEVTCVVVDVSQEDPEVQFNWYVDGVEVHNAKTKPREEQFNSTYRVVSVLTVLHQDWLNGKEYKCKVSNKGLPSSIEKTISKAKGQPREPQVCTLPPSQEEMTKNQVSLSCAVKGFYPSDIAVEWESNGQPENNYKTTPPVLDSDGSFFLVSRLTVDKSRWQEGNVFSCSVMHEALHNRFTQKSLSLSLGGGGSGGGGSEVKLLESGGGLVQPKGSLKLSCAASGFTFNTYAMNWVRQAPGKGLEWVARIRSKYNNYATYYADSVKDRFTISRDDSQSILYLQMNNLKTEDTAMYYCVRHGNFGNSYVSWFAYWGQGTLVTVSSASTKGPSVFPLAPCSRSTSESTAALGCLVKDYFPEPVTVSWNSGALTSGVHTFPAVLQSSGLYSLSSVVTVPSSSLGTKTYTCNVDHKPSNTKVDKRV light: QAVVTQESALTTSPGETVTLTCRSSTGAVTTSNYANWVQEKPDHLFTGLIGGTNKRAPGVPARFSGSLIGDKAALTITGAQTEDEAIYFCALWYSNLWVFGGGTKVEIKRTVAAPSVFIFPPSDEQLKSGTASVVCLLNNFYPREAKVQWKVDNALQSGNSQESVTEQDSKDSTYSLSSTLTLSKADYEKHKVYACEVTHQGLSSPVTKSFNRGEC | 8.88 µg/mL and 68.3 nM | 1.98 | 0.000565 | 285000
Knob+CEA-Hole-Fab (111) (bispecific antibody, human IgG4 S228P, kappa, F234A L235A, Anti-CD3 TA1 Fab + anti-CEA VHH C17 on human IgG4 knob-into-hole Fc) ESKYGPPCPPCPAPEAAGGPSVFLFPPKPKDTLMISRTPEVTCVVVDVSQEDPEVQFNWYVDGVEVHNAKTKPREEQFNSTYRVVSVLTVLHQDWLNGKEYKCKVSNKGLPSSIEKTISKAKGQPREPQVYTLPPCQEEMTKNQVSLWCLVKGFYPSDIAVEWESNGQPENNYKTTPPVLDSDGSFFLYSRLTVDKSRWQEGNVFSCSVMHEALHNHYTQKSLSLSL heavy: EVQLVESGGGFVQAGESLTLSCTSSTLTFTPYRMAWYRQAPGKQRDLVADISSGDGRTTNYADFAKGRFTISRDNIKNTVFLRMTNLKPEDTAVYYCNTFVSFVGIARSWGQGTQVTVSSESKYGPPCPPCPAPEAAGGPSVFLFPPKPKDTLMISRTPEVTCVVVDVSQEDPEVQFNWYVDGVEVHNAKTKPREEQFNSTYRVVSVLTVLHQDWLNGKEYKCKVSNKGLPSSIEKTISKAKGQPREPQVCTLPPSQEEMTKNQVSLSCAVKGFYPSDIAVEWESNGQPENNYKTTPPVLDSDGSFFLVSRLTVDKSRWQEGNVFSCSVMHEALHNRFTQKSLSLSLGGGGSGGGGSEVKLLESGGGLVQPKGSLKLSCAASGFTFNTYAMNWVRQAPGKGLEWVARIRSKYNNYATYYADSVKDRFTISRDDSQSILYLQMNNLKTEDTAMYYCVRHGNFGNSYVSWFAYWGQGTLVTVSSASTKGPSVFPLAPCSRSTSESTAALGCLVKDYFPEPVTVSWNSGALTSGVHTFPAVLQSSGLYSLSSVVTVPSSSLGTKTYTCNVDHKPSNTKVDKRV light: QAVVTQESALTTSPGETVTLTCRSSTGAVTTSNYANWVQEKPDHLFTGLIGGTNKRAPGVPARFSGSLIGDKAALTITGAQTEDEAIYFCALWYSNLWVFGGGTKVEIKRTVAAPSVFIFPPSDEQLKSGTASVVCLLNNFYPREAKVQWKVDNALQSGNSQESVTEQDSKDSTYSLSSTLTLSKADYEKHKVYACEVTHQGLSSPVTKSFNRGEC | 7.6 µg/mL and 58.5 nM | 2.08 | 0.000694 | 333000
Knob-CEA+Hole-Fab (112) (bispecific antibody, human IgG4 S228P, kappa, F234A L235A, Anti-CD3 TA1 Fab + anti-CEA VHH C17 on human IgG4 knob-into-hole Fc) ESKYGPPCPPCPAPEAAGGPSVFLFPPKPKDTLMISRTPEVTCVVVDVSQEDPEVQFNWYVDGVEVHNAKTKPREEQFNSTYRVVSVLTVLHQDWLNGKEYKCKVSNKGLPSSIEKTISKAKGQPREPQVYTLPPCQEEMTKNQVSLWCLVKGFYPSDIAVEWESNGQPENNYKTTPPVLDSDGSFFLYSRLTVDKSRWQEGNVFSCSVMHEALHNHYTQKSLSLSLGGGGSGGGGSEVQLVESGGGFVQAGESLTLSCTSSTLTFTPYRMAWYRQAPGKQRDLVADISSGDGRTTNYADFAKGRFTISRDNIKNTVFLRMTNLKPEDTAVYYCNTFVSFVGIARSWGQGTQVTVSS heavy: ESKYGPPCPPCPAPEAAGGPSVFLFPPKPKDTLMISRTPEVTCVVVDVSQEDPEVQFNWYVDGVEVHNAKTKPREEQFNSTYRVVSVLTVLHQDWLNGKEYKCKVSNKGLPSSIEKTISKAKGQPREPQVCTLPPSQEEMTKNQVSLSCAVKGFYPSDIAVEWESNGQPENNYKTTPPVLDSDGSFFLVSRLTVDKSRWQEGNVFSCSVMHEALHNRFTQKSLSLSLGGGGSGGGGSEVKLLESGGGLVQPKGSLKLSCAASGFTFNTYAMNWVRQAPGKGLEWVARIRSKYNNYATYYADSVKDRFTISRDDSQSILYLQMNNLKTEDTAMYYCVRHGNFGNSYVSWFAYWGQGTLVTVSSASTKGPSVFPLAPCSRSTSESTAALGCLVKDYFPEPVTVSWNSGALTSGVHTFPAVLQSSGLYSLSSVVTVPSSSLGTKTYTCNVDHKPSNTKVDKRV light: QAVVTQESALTTSPGETVTLTCRSSTGAVTTSNYANWVQEKPDHLFTGLIGGTNKRAPGVPARFSGSLIGDKAALTITGAQTEDEAIYFCALWYSNLWVFGGGTKVEIKRTVAAPSVFIFPPSDEQLKSGTASVVCLLNNFYPREAKVQWKVDNALQSGNSQESVTEQDSKDSTYSLSSTLTLSKADYEKHKVYACEVTHQGLSSPVTKSFNRGEC | 5.32 µg/mL and 40.9 nM | 2.44 | 0.000614 | 252000
311 (TA6), configuration of FIG. 1X (bispecific antibody, IgG4, chains put together from parts; IgG4, kappa; not shown: kappa light chain constant domain (CL)) heavy: EVQLVQSGAEVKKPGASVKVSCKASGYTFTNYYIHWVRQAPGQGLEWIGWIYPGDGNTKYNEKFKGRATLTADTSTSTAYLELSSLRSEDTAVYYCARDSYSNYYFDYWGQGTLVTVSSASTKGPSVFPLAPCSRSTSESTAALGCLVKDYFPEPVTVSWNSGALTSGVHTFPAVLQSSGLYSLSSVVTVPSSSLGTKTYTCNVDHKPSNTKVDKRVESKYGPPCPPCPAPEAAGGPSVFLFPPKPKDTLMISRTPEVTCVVVDVSQEDPEVQFNWYVDGVEVHNAKTKPREEQFNSTYRVVSVLTVLHQDWLNGKEYKCKVSNKGLPSSIEKTISKAKGQPREPQVYTLPPCQEEMTKNQVSLWCLVKGFYPSDIAVEWESNGQPENNYKTTPPVLDSDGSFFLYSRLTVDKSRWQEGNVFSCSVMHEALHNHYTQKSLSLSLGGGGSGGGGSEVQLVESGGGFVQAGESLTLSCTSSTLTFTPYRMAWYRQAPGKQRDLVADISSGDGRTTNYADFAKGRFTISRDNIKNTVFLRMTNLKPEDTAVYYCNTFVSFVGIARSWGQGTQVTVSS ESKYGPPCPPCPAPEAAGGPSVFLFPPKPKDTLMISRTPEVTCVVVDVSQEDPEVQFNWYVDGVEVHNAKTKPREEQFNSTYRVVSVLTVLHQDWLNGKEYKCKVSNKGLPSSIEKTISKAKGQPREPQVCTLPPSQEEMTKNQVSLSCAVKGFYPSDIAVEWESNGQPENNYKTTPPVLDSDGSFFLVSRLTVDKSRWQEGNVFSCSVMHEALHNRFTQKSLSLSL light: DIVMTQSPDSLAVSLGERATINCKSSQSLLNSRTRKNYLAWYQQKPGQPPKLLIYWASTRESGVPDRFSGSGSGTDFTLTISSLQAEDVAVYYCTQSFILRTFGQGTKVEIK | 1.04 µg/mL and 8.02 nM | 3.66 | 0.00101 | 303000
